Source: the DeepSol protein solubility set

Assay: soluble on expression in E. coli; label from the status in PepcDB or PDB records

| Sequence | soluble on expression in E. coli |
| --- | --- |
| MKLDLIQSMLYNNPKPQDTKEGLSDQDFSIYMDAHTVPFSKYPSYMPAGVLGICTEGNAEIQVGLRKYVICANDILIFMPGFLVSFIKSSPTFTIDYCTFSNVLFYDVINGSIKRFPTGFHTYTQTHCVYSLSQEKAEQFSIYFRLLYNRATSPTYLFTKESITNLLKLPFLELYADYYSTVKEHKVTTLHKEEIGYFFLDLLLKHYKENKEVAFYAEKLHVSSKYLTEALTLVSGKSPKEWIIHYTLQEIYALLENPSISIQEIVQRTRFANLATLRRFFKRHTGTSLLQYRKQDLYKNNQ | not soluble |
| MGSDKIHHHHHHMTRLEIVDSKLRQAKKTEEYFNAIRTNIQFSGKENKILAITSVREGEGKSTASTSLALSLAQAGFKTLLIDADTRNSVMSGTFKATGTIKGLTNYLSGNADLGDIICETNVPRLMVVPSGKVPPNPTALLQNAYFNKMIEAIKNIFDYIIIDTPPIGLVVDAAIIANACDGFILVTQAGRIKRNYVEKAKEQMEQSGSKFLGIILNKVNESVATYGDYGNYGKRDRKRK | not soluble |
| MSLNKQDKKWRVLVVDDDADVLTNTVYTLMDLKVLGRELDITTLGSATAAIELLERERDFAVILLDVVMEKPHAGLSLVTMIRHDFNMQMSRIILRTGNPGYAPERDITLKLEIDDYILKQTAVRDRIITAVIVAIRAYDQLQRLARLKDAMQQIICCSNQLLTTDEIDQFANVCMQYVAPIFGKNAGGGLAYAGMTVNQGIVPLTVMSATSEHESLIEPLNGIGVLPPNISVTKKKMTKALEQTNSIKTDKDWYIYIKVSLGRKVVLWLNKPDGFDEIDETLGKSFANTIKACLDREGHHHHHH | soluble |
| ANMPPGSVEQVAAKVVPSVVMLETDLGRQSEEGSGIILSAEGLILTNNHVIAAAAKPPLGSPPPKTTVTFSDGRTAPFTVVGADPTSDIAVVRVQGVSGLTPISLGSSSDLRVGQPVLAIGSPLGLEGTVTTGIVSALNRPVSTTGEAGNQNTVLDAIQTDAAINPGNSGGALVNMNAQLVGVNSAIATLGADSADAQSGSIGLGFAIPVDQAKRIADELISTGKASHASLGVQVTNDKDTLGAKIVEVVAGGAAANAGVPKGVVVTKVDDRPINSADALVAAVRSKAPGATVALTFQDPSGGSRTVQVTLGKAEQLEHHHHHH | soluble |
| MSLLSYQHIYHAGNLADVQKHALLALALDYLTRKDKPLSYLETHAGRGLYHLDAAEAVRTGEAGAGIGRAEGAAWFDPAHPMTRVLAAVRTDHGAMAYPGSPLVAAHLLRPGDMMHLAELHPQEHAALEQAMAGYPARVYRRDGVEMAQSLLPPEPRRGMMLIDPSYEVKSDYDRIPAVIAQLHRKWNVGVIALWYPILTDERHKVMLAALERLDLPRVLRHEVRFAPAREGHRMVGSGMFVINAPFGLADEAARLSGLFAQLEGHHHHHH | soluble |
| MKIFKFTPENNLFYGYILEDMKTGFNILREIMVEGYRPSIARLYDAEDGTQHFTHFADGKCVLIFMAEGNPRIAKVTGEGIAEIVARYPQCQRVDSKLIETWFNNLNWGPDKVAAERVQILKTGNMGFTTEVSGCWSCIHEIYESVINRIRTEFPHADDITMLGGHSSHSYQNGTNMYFVYDYNVVDCKPEEEIDKYHNPLNKIICEETIRLGGSMVHHHGIGKHRVHWSKLEHGSAWALLEGLKKQFDPNGIMNTGTIYPIEK | soluble |
| MFTGLVEETGEILKVEEGPFLRVYIGARKVLKDLKVGDSVAVDGACLTAVTVEEGGFWVELAQETLRRTAPTWRVGHRPNLERALKVGDRLGGHFVTGHVDGVARLWEVREAPGAKDFYFLPPKALAPYIAEKGSVALNGVSLTVAGLTGEAFWVTLIPHTLEVTNLGRLRVGDGVNLEVDLIARYVARLLGRA | soluble |
| MNEKELADSVFGGLMAKAMGKMVHESEICPLVDQIEGKGQTNEELQGLRLSLSDLLLRHPDKFINCGNRNWRLNQNNHAFQQLAESISDKKSGKGGKRSARGGSNLPSFNRARSGGIPRNHNQTHGFRQSAPAHRGHHRPPAGNHGSSFRPNLNISQPNPSNDYSKMTGLHYPVSRNVLASNNGSNSRFSNQPPRREDHHEKMIMRTPYRDPSPRRGNNYGDIRGRPDSRDGYNGDRDSTRYSSPRRNEQPGRPSSRGSNISDYSQFSSDTNAESNTERRSRPDASSPDLADLARRFNSSSINVQPQPLESVASSDVLSKKIAKAVRKIMKKLNEGEKLSLENLFDEIERKNKILIPGKNGKEKEDFLKDLKKIMPKLLSALTIDTETGDLTWNEAAVTTDSPIHEYMEDDLHYYVVDYVKMLDKARFRVTDEAERLSNATGVRMERTCEKLTYVLFITFEGEYRYASGSKTEVLKISKITTVGDAPEFYQTSFEHKIFENVPANALVKCGIVRYQNVQKFAVRPEEYIKPYEKMNQEIQDFMSQIRNEKSVPFEMWRPNHACLVQLNDSTTILKWSRAMIIKIETQLIFLFILDSGFRKVVPSSDLRLMPQKFAKLPPFAIPCTLDESEDDKDNIEFGGKEYLSNGPGNLSVTCSGAATASDGILTYPIKLFSTCHGGPLTNIKDVFI | not soluble |
| MQQNIRIQKNQYDTATHPTASSTTWKYVTYDETSETFGMSEQVADPCNHCPKPRNYNSECKDEDVEKHFEKVMPCVHTYTIIYGNVHHLPNHPIIRNLRHNHY | soluble |
| MSLSPGKKRAMINRDHPKLSISQQCKLVSLSRSAFYYTPAGIDADTLSMMKEIDRVFTKYPFFGSRQIAAYLRREGIVVGRHRVRRLMAKMGLEAVYKRPRTSQPHPQHPVFPYLLRKMVIDRPNQVWCADITFVPVRNGFLYLVAIMDWATRKVLSWRLSNTMHADFCVEALSEAIARYGPPEIMNTDQGSQFTGSAWITTLTEAGVRISMDGRGRYLDNIFIERLWRSLKQEAIYLEEINEGFRARRVIKGWMAFYNTSRPHSALDRQTPDDAYWAGLEERHAAEGHHHHHH | not soluble |
| MAHHHHHHMFAALSWLLDLDQGHAASSSSTSSCSSYSGSLDADAGVETDPAANHTTFSDAGGQLLAELHISSVAAATLSRSASEAAAPPRGAVYSSARHLEESFADLEARKAEFFAPSPCQEPAEDAGLGLSSLTERGGTPVSPLSCKIVPLGSLCAYANETVSLSPIASPVPAPVSATVATLLAPTHEDERLLLVSEGVMLSARLSSPSRGGPRAAAERAKITNNDGSATGAMGAGVAAPTQRSRILDWDREMHARPQASPPPGLSANRGERAVRSGTGVQERSEQIADAEPGEARLVRGAMKAAFMLSTPPHTPALGAAAFAPAAVPLHPSPPFLGTTVGARDAAVPGYSIERIHDTPAQEDSGVVYLADGLATVTSMDVGDLHRQAEQSSPPLTHPLAAQLTTPSHTKQPHFDFS | not soluble |
| ARKRFAGLEPVEMRMEVKAGDHGNTIINDVYSNDVYSLTLALDFQRRRTAETCLKKVLILSDILQSGMPPEELYRHVAGQLQVYALDFFVGIGEEIASHRTCFAGMSAVFFKDVATFLTSGEIERFSNSCILLKGARKYRFEQITERLVQQVH | not soluble |
| VLQTRNYTCGPAALATVLQRLGVNTTEDELAGLAGTTEEGTTMQGLLEASRAKGMNATGMKLNISELKENMIAYTINDGTGHYTVINEITNDTIKLADPSLGNIEMNIEEFAEIYSGYTLVI | soluble |
| SNASKGMALRSVGGMVIESPRNETEHWLLETVGRQAQQAGIGMPTVAIYDSADINAFATGAKRDDSLVAVSTGLLHNMTRDEAEAVLAHEVSHIANGDMVTMTLMQG | soluble |
| MEVEVGQIVNTHGIKGEVKVKSNSDFTETRFQPGEQLLVKHNNTEIVYTVASYRIHKGFHMLRFEGINNINEIEHLKGDYIYQERDHQDIELGEHEYYYSDIIGCTVFKDDDTPIGRVINIFETGANDVWVVKGEKEYLIPYIEDVVKDIDIETKTIKITPMEGLLDLEHHHHHH | soluble |
| MLTRTDGKGSKVLLIAAMDTKGTEARYIESWLAKAGFTTLIMDMGIRGKRPGPVAVTRDEVLRAAGKTWDDIQNVTSEGDAVDIMISGGVKCALALYKADLIQGVISLGGTMGTTLGTGVMRAFPIGFPKVMISTIAAKDTEAFIGNMDIFMLNSVSDLAGLNRITRKVLRNGALAIAGLVREREFHDEFSRPLAVLTTLGTTEATAARMRIHFEAWGYESVTFHTTGTGGQAMERMVNFEPVSAVVDLSLHELIDHHFGGAFDPGPERGRAALQKGIPTVIVPGNIDFLVTGPMAQAQIYFPGRRGHKHNANITCVRTSLEEIQRIAEIMAGYCNESTGPVAVLVPMKGFSCLDHEDGPQPDPEGPRVFAETFARALTRTIHFETVPLHINDEAFSEVIVGALQKIGGLRKIEADRLPSRQPATWSPYSSVHTLDRFSGNQHTTTETTGDALAALEHHHHHH | not soluble |
| MSLGIKVNRLKVEDQILRQFGGNLLLEKDGNRGFIAFIGRGLIDFTERIRILATVSRIKDILFIGTAGSLSNEILIGDLNIPKYAIPFENVSDFYADPTIAIPQADEKLLNEVYEYAEETGVKTHSTLHATLLFPYSETTEFLNYLLNIGVSTIDMEVSAFYKMSRFYGKRAVAVLRISDMPLIELHKQEELIKARREIAVNAVFRITLRFLKLEGHHHHHH | not soluble |
| MGSDKIHHHHHHMSHSLTSVFQKIDSLKPQFFSRLTKAIQIPAVSSDESLRSKVFDKAKFISEQLSQSGFHDIKMVDLGIQPPPISTPNLSLPPVILSRFGSDPSKKTVLVYGHYDVQPAQLEDGWDTEPFKLVIDEAKGIMKGRGVTDDTGPLLSWINVVDAFKASGQEFPVNLVTCFEGMEESGSLKLDELIKKEANGYFKGVDAVCISDNYWLGTKKPVLTYGLRGCNYYQTIIEGPSADLHSGIFGGVVAEPMIDLMQVLGSLVDSKGKILIDGIDEMVAPLTEKEKALYKDIEFSVEELNAATGSKTSLYDKKEDILMHRWRYPSLSIHGVEGAFSAQGAKTVIPAKVFGKFSIRTVPDMDSEKLTSLVQKHCDAKFKSLNSPNKCRTELIHDGAYWVSDPFNAQFTAAKKATKLVYGVDPDFTREGGSIPITLTFQDALNTSVLLLPMGRGDDGAHSINEKLDISNFVGGMKTMAAYLQYYSESPEN | not soluble |
| MGKKAKLGHKTGVNKGILLTDRQRLNWLRLLRSENIGAVSFRNLIDHYKTAENALAALPELSRKGGLATSIRIATLEDAEKEMQEAEKLGIRFVGIGEPDYPTFLKVTEASPPLIAIKGNVSVFEKASVGIVGSRNASAAGKKLAAQFAHFLGNADFTIISGLARGIDSIAHQASLQTGTVAVMAGGIDHIYPPENKKLHEDIIANGGAIISEMPIGWKPRAIDFPRRNRIIAGLSLGLLVVEAALQSGSLITARQAAEMGRLTFAIPGSPLDPRSVGTNNLLKDGALLTTHPSDIIETLTPLIPTPTNHQLNFFEELPSLQLEKDCFNSSDKKTKITSFVGDERERRAVLSALSTTPIDLDTLSTNSGVSLSNLYLLLVELELAGKLIRHSGGYVSLSNFDLLQEPPHY | not soluble |
| MKVAVTGRPGVGKTTLCLKVHESLKDKMTVGGFITKEVRRDGVRVGFKLVDLSSGNEEWLARVGEGKARVGKYAVNVEGLEEFLDSVRTDADLVIIDEVGPMELKSRKFVRFVENLMGRERLLFTIHLKSRHRLLDRIRREFKVYVIDESNRNRIAEEITRILEGLEHHHHHH | soluble |
